According to publication doi:10.1101/2024.09.20.612365, “Preventing Inappropriate Signals Pre- and Post-Ligand Perception by a Toggle-Switch Mechanism of ERECTA” (bioRxiv, 2024):
Changes are numbered by the printed parent chain. In names and notes the source's numbering stands. Where two headings read alike, the source gives them in different places.

B1: GST-PUB30 (plant U-box E3 ligase PUB30) (enzyme)
chain: MPMFQPLKRDGLIGFEGGGDGQVLDLDTAVKDGVLGGVNGGGVGVVDEKLDLKKMIKELDLQDIPSVFICPISLEPMQDPVTLCTGQTYERLNIHKWFNLGHLTCPTTMQELWDDTVTPNKTLHHLIYTWFSQKYVLMKKRSEDVQGRAIEILGTLKKAKGQARVHALSELKQIVIAHLMARKTVVEEGGVSVISSLLGPFTSHAVGSEVVAILVSLDLDSDSKSGLMQPAKVSLIVDMLNDGSNETKINCARLIRGLVEEKGFRAELVSSHSLLVGLMRLVKDKRHRNGVSPALRLLKPISVHKQVRSLMVSIGAVPQLVDILPSLDPECLELALFVLDALCTDVEGRVAVKDSANTIPYTVRVLMRVSENCTNYALSILWSVCKLAPEECSPLAVEVGLAAKLLLVIQSGCDAALKQRSAELLKLCSLHYSDTMFISKCKLTRTIQ
B2: MBP-fused full-length ER cytoplasmic domain (MBP-ER_CD) (domain or fragment, Arabidopsis, UniProt Q42371 602-976, looked up)
chain: CRPHNPPPFLDGSLDKPVTYSTPKLVILHMNMALHVYEDIMRMTENLSEKYIIGHGASSTVYKCVLKNCKPVAIKRLYSHNPQSMKQFETELEMLSSIKHRNLVSLQAYSLSHLGSLLFYDYLENGSLWDLLHGPTKKKTLDWDTRLKIAYGAAQGLAYLHHDCSPRIIHRDVKSSNILLDKDLEARLTDFGIAKSLCVSKSHTSTYVMGTIGYIDPEYARTSRLTEKSDVYSYGIVLLELLTRRKAVDDESNLHHLIMSKTGNNEVMEMADPDITSTCKDLGVVKKVFQLALLCTKRQPNDRPTMHQVTRVLGSFMLSEQPPAATDTSATLAGSCYVDEYANLKTPHSVNCSSMSASDAQLFLRFGQVISQNSE
notes: ERECTA (ER) LRR receptor kinase, Arabidopsis; full-length cytoplasmic domain (juxtamembrane domain, kinase domain, C-terminal tail); source: expressed and purified (recombinantly purified)
B3: MBP-ER_CD_(T/S8E), phosphomimetic version (domain or fragment, Arabidopsis, UniProt Q42371 602-976, looked up)
chain: B2 chain with T346E, S349E, S353E, S354E, S356E, S358E, S371E, S374E
notes: ERECTA (ER), Arabidopsis; source: recombinantly purified
B4: GST-BKI1 (BRI1 KINASE INHIBITOR 1) (natural protein, Arabidopsis, UniProt Q9FMZ0 1-337, looked up)
chain: METNLQQVKNSSQTFSEKQNPKQEASPSPISSTCSSPSHDFSFTISLQPLSSSSKHISPTLRSPSKTTSSYQQTDPFAVDLSPADEIFFHGHLLPLHLLSHLPVSPRTSTGSYNDGFTLPVKDILPDQPTNNNNNTENAITNISTEAKDDNTEDKAEGEIRVKTKPIKSFSLFGLSKWRKGFESNEREQEQQQQKIKKPMSLDLSHAVKKYIRMLFQKRGNGTQFWNRRQTSSYSFSSSLMGPNGNSKTMINGSYNKRDLIRGRRGELFSAPASMRTSPTNSGHLRVSTAGLSSSSGSTSSSSSDSTMEELQAAIQAAIAHCKNSSAVDRDDKVKDS
notes: source: recombinantly purified

Tests used:
[1] = target: T1, GST-PUB30 (plant U-box E3 ligase PUB30) (Arabidopsis, UniProt Q058P4 1-448); test: BLI; recombinantly purified GST-BKI1 or GST-PUB30 and MBP-ER_CD variants at seven concentrations (156.25, 312.5, 625, 1,250, 2,500, 5,000 and 10,000 nM); representative of three independent experiments
T1 construct: U-box E3 ubiquitin ligase PUB30, Arabidopsis; source: recombinantly purified
T1 sequence (looked up): B1 chain

[2] = target: GST-BKI1 (BRI1 KINASE INHIBITOR 1) (Arabidopsis) (UniProt Q9FMZ0); test: as above
[3] = target: T2, MBP-ER_CD_(T/S8E), phosphomimetic version (Arabidopsis, UniProt Q42371 602-976, Thr947 (T/S8E) | Ser950 (T/S8E) | Ser954 (T/S8E) | Ser955 (T/S8E) | Ser957 …); test: BLI
T2 sequence: B2 chain with T346E, S349E, S353E, S354E, S356E, S358E, S371E, S374E

[4] = target: T3, MBP-ER_CD_(T/S8A), phosphonull version (Arabidopsis, UniProt Q42371 602-976, Thr947 (T/S8A) | Ser950 (T/S8A) | Ser954 (T/S8A) | Ser955 (T/S8A) | Ser957 …); test: BLI
T3 sequence: B2 chain with T346A, S349A, S353A, S354A, S356A, S358A, S371A, S374A

[5] = target: B2; test: BLI; recombinantly purified GST-BKI1 or GST-PUB30 and MBP-ER_CD variants at seven concentrations (156.25, 312.5, 625, 1,250, 2,500, 5,000 and 10,000 nM); representative of three independent experiments; settings: both partners purified
[6] = target: T4, MBP-ER_CD_(T/S8A), phosphonull version (Arabidopsis, UniProt Q42371 602-976, Thr947 (T/S8A) | Ser950 (T/S8A) | Ser954 (T/S8A) | Ser955 (T/S8A) | Ser957 …); test: as above; settings: both partners purified
T4 construct: ERECTA (ER), Arabidopsis; The eight sites: six detected (Thr947, Ser950, Ser954, Ser955, Ser957, Ser972); source: recombinantly purified
T4 sequence (looked up): B2 chain with T346A, S349A, S353A, S354A, S356A, S358A, S371A, S374A

Work on “MBP-ER_CD_(ΔCTα-Helix) (domain or fragment)” yielded a Kd [1] of 0.805 µM and a Kd [2] of 47.7 µM.

Molecule B1 has a Kd [3] of 0.194 µM and a Kd [4] of 9.5 µM.

With B2 the Kd ([1]; both partners purified) was 0.393 ± 0.048 µM.

B3: binds ([1]; both partners purified).

With B4 the Kd [5] was 3.7 ± 0.7 µM, the binding result [6] was “binds” and the Kd [3] was 18 µM. It also gave a Kd [4] of 3.8 µM.
